In patent US12359223B2, “Systems and methods for modulating chromosomal rearrangements” (Editas Medicine, Inc., priority 2018, dated 2025):

Test system: chromosome 15 (B2M) and chromosome 14 (TRAC) cut sites
Assay: Translocation rates induced by translocation promoting oligos
Format: cell-based, human
Settings: Cas9/B2M12 and Cas9/TRAC5 RNPs 0.6 μM; average of plus and minus strand oligo; FIG. 11B
Description: Two simultaneous DSBs were introduced in primary human T cells by nucleofection with Cas9/B2M (B2M12 gRNA) and Cas9/TRAC (TRAC5 gRNA) RNP complexes at a concentration of 0.6 μM, along with one of the translocation promoting oligos depicted in FIG. 11A.

B1: Dicentric oligo: translocation promoting ssODN, plus or minus strand, SEQ ID NOs: 16, 17 (nucleic acid)
chain 1: CACGCGTTTAATATAAGTGGAGGCGTCGCGCTGGCGGGCATTCCTGAAGCTGACAGCATTCGGGCCGAGATGATCAGGGTTCTGGATATCTGTGGGACAAGAGGATCAGGGTTAGGACATGATCTCATTTCCCTCTTTGCCCC
chain 2: GGGGCAAAGAGGGAAATGAGATCATGTCCTAACCCTGATCCTCTTGTCCCACAGATATCCAGAACCCTGATCATCTCGGCCCGAATGCTGTCAGCTTCAGGAATGCCCGCCAGCGCGACGCCTCCACTTATATTAAACGCGTG
modifications: /note=“Description of Unknown Donor template sequence”
translocation products enhanced: enhanced the formation of Dicentric and Acentric translocation products
